{
  "source": "paper PMC7077193",
  "origin": "cited, not measured here",
  "target": "eIF4E (Lactuca sativa)",
  "data": [
    {"substance": "VPg (from UniProt P31999)", "values": [
      {"measurement": "Kd", "value": 300, "unit": "nM"}
    ]}
  ]
}
